Laboratory results reported in patent US20260209350A1.
Where a chain is given by its changes, count along the chain named.

T1: recombinant human TREM2-DAP12 fusion protein on cells (human) (UniProt Q9NZC2)
T1 sequence: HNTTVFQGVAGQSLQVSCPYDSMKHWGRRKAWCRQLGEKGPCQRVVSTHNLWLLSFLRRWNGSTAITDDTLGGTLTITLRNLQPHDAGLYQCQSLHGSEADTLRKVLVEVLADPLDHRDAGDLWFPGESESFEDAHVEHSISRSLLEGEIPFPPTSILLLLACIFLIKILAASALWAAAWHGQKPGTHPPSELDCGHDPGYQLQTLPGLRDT

B1: Ab52 (antibody, human IgG1, V domains shown)
VH: QVQLVQSGAEVKKPGASVKVSCKASGYTFTSYYIHWVRQAPGQGLEWMGIINPSGGSTSYAQKFQGRVTMTRDTSTSTVYMELSSLRSEDTAVYYCAREADDSSGYPLGLDVWGQGTMVTVSS
VL: EIVMTQSPATLSVSPGERATLSCRASQSVSSNLAWYQQKPGQAPRLLIYGASTRATGIPARFSGSGSGTEFTLTISSLQSEDFAVYYCQQVNSLPPTFGGGTKVEIK
B2: Ab45 (antibody, human IgG1, V domains shown)
VH: QVQLVQSGAEVKKPGASVKVSCKASGYTFTSYYMHWVRQAPGQGLEWMGIINPSGGSTSYAQKFQGRVTMTRDTSTSTVYMELSSLRSEDTAVYYCARGPGYTTALDYYYMDVWGKGTTVTVSS
VL: EIVMTQSPATLSVSPGERATLSCRASQSVSSNLAWYQQKPGQAPRLLIYGASTRATGIPARFSGSGSGTEFTLTISSLQSEDFAVYYCQQLDDWFTFGGGTKVEIK
B3: Ab73 (antibody, human IgG1, V domains shown)
VH: EVQLVQSGAEVKKPGESLKISCKGSGYSFTSYWIGWVRQMPGKGLEWMGIIYPGDSDTTYSPSFQGQVTISADKSISTAYLQWSSLKASDTAMYYCARAKMLDDGYAFDIWGQGTMVTVSS
VL: B1 VL with V91D, N92D, S93N, L94Y, P96Y
B4: Ab12 (antibody, human IgG1, V domains shown)
VH: EVQLVQSGAEVKKPGESLKISCKGSGYSFTSYWIGWVRQMPGKGLEWMGIIYPGDSDTRYSPSFQGQVTISADKSISTAYLQWSSLKASDTAMYYCARLGHYSGTVSSYGMDVWGQGTTVTVSS
VL: DIQMTQSPSSLSASVGDRVTITCRASQSISSYLNWYQQKPGKAPKLLIYAASSLQSGVPSRFSGSGSGTDFTLTISSLQPEDFATYYCQQEYAVPYTFGGGTKVEIK
B5: Ab54 (antibody, human IgG1, V domains shown)
VH: B2 VH
VL: B4 VL with S30N, E91S, Y92D, A93D, V94D, Y96F
B6: Ab83 (antibody, human IgG1, V domains shown)
VH: QVQLQQWGAGLLKPSETLSLTCAVYGGSFSGYYWSWIRQPPGKGLEWIGEIDHSGSTKYNPSLKSRVTISVDTSKNQFSLKLSSVTAADTAVYYCARVGVVVGRPGYSAFDIWGQGTMVTVSS
VL: B4 VL with L11V, S28G, Y32W, N34A, E91R, Y92N, A93S, V94L, Y96L
B7: Ab63 (antibody, human IgG1, V domains shown)
VH: QVQLVQSGAEVKKPGASVKVSCKASGYTFTSYGISWVRQAPGQGLEWMGWISTYNGNTNYAQKLQGRVTMTTDTSTSTAYMELRSLRSDDTAVYYCARGSGSGYDSWYDWGQGTLVTVSS
VL: B4 VL with L11V, S28G, S30D, Y32W, N34A, E91A, A93S, V94L, Y96P
B8: Ab8 (antibody, human IgG1, V domains shown)
VH: QLQLQESGPGLVKPSETLSLTCTVSGGSISSSSYYWGWIRQPPGKGLEWIGSISYSGSTYYNPSLKSRVTISVDTSKNQFSLKLSSVTAADTAVYYCARGPYRLLLGMDVWGQGTTVTVSS
VL: B4 VL with A50G, E91I, Y92D, A93D, V94T, Y96I
B9: Ab82 (antibody, human IgG1, V domains shown)
VH: QVQLQESGPGLVKPSQTLSLTCTVSGGSISSGGYYWSWIRQHPGKGLEWIGYIYYSGSTVYNPSLKSRVTISVDTSKNQFSLKLSSVTAADTAVYYCARVSSSWYKAWGQGTMVTVSS
VL: B4 VL with L11V, S28G, Y32W, N34A, E91A, Y92S, A93T, V94F, Y96I
B10: Ab64 (antibody, human IgG1, V domains shown)
VH: EVQLVQSGAEVKKPGESLKISCKGSGYSFTSYWIGWVRQMPGKGLEWMGIIYPGDSDTRYSPSFQGQVTISADKSISTAYLQWSSLKASDTAMYYCARLGRWSSGSTAFDIWGQGTMVTVSS
VL: B2 VL with L91D, W94G, F95Y
B11: Ab72 (antibody, human IgG1, V domains shown)
VH: QVQLQESGPGLVKPSETLSLTCTVSGGSISSYYWSWIRQPPGKGLEWIGSIYYSGSTNYNPSLKSRVTISVDTSKNQFSLKLSSVTAADTAVYYCARSGTETLFDYWGQGTLVTVSS
VL: DIQMTQSPSSLSASVGDRVTITCQASQDITNYLNWYQQKPGKAPKLLIYDASNLETGVPSRFSGSRSGTDFTFTISSLQPEDIATYYCQQDVNYPPTFGGGTKVEIK
B12: Ab51 (antibody, human IgG1, V domains shown)
VH: QVQLVQSGAEVKKPGASVKVSCKASGYTFTSYYMHWVRQAPGQGLEWMGIINPSGGSTSYAQKFQGRVTMTRDTSTSTVYMELSSLRSEDTAVYYCARGVGGQDYYYMDVWGKGTTVTVSS
VL: DIQMTQSPSSLSASVGDRVTITCRASQSISSYLNWYQQKPGKAPKLLIYAASSLQSGVPSRFSGSGSGTDFTLTISSLQPEDFATYYCQQFDDVFTFGGGTKVEIK
B13: Ab15 (antibody, human IgG1, V domains shown)
VH: QVQLQESGPGLVKPSQTLSLTCTVSGGSISSGGYYWSWIRQHPGKGLEWIGNIYYSGSTVYNPSLKSRVTISVDTSKNQFSLKLSSVTAADTAVYYCARGLYGYGVLDVWGQGTMVTVSS
VL: DIQMTQSPSSLSASVGDRVTITCQASQDISNYLNWYQQKPGKAPKLLIYDASNLETGVPSRFSGSGSGTDFTFTISSLQPEDIATYYCQQFDTYPTFGGGTKVEIK

Target: T1, recombinant human TREM2-DAP12 fusion protein on cells (human)
Assay: FACS, 293 cells

Row | MFI | Binder
1 | 1410 MFI | B1
2 | 2060 MFI | B2

Target: T1, recombinant human TREM2-DAP12 fusion protein on cells (human)
Assay: FACS, hTrem2 cells

Row | MFI | Binder
3 | 1410 MFI | B1
4 | 1310 MFI | B3
5 | 1930 MFI | B4
6 | 1930 MFI | B5
7 | 684 MFI | B6
8 | 1350 MFI | B7
9 | 1620 MFI | B8
10 | 371 MFI | B9
11 | 1460 MFI | B10
12 | 1500 MFI | B11
13 | 1930 MFI | B12
14 | 1610 MFI | B13
